The results in this text go back to article PMC5045792.

A value given as a limit tells only on which side of the number the result lay.

Experiment [1] deals with ToxR-TM-MBP chimera with the transmembrane domain of the FtsI homolog annotated for S. pneumoniae (S. pneumoniae). As to the kind of experiment: TOXGREEN
Experiment [2] has as its target ToxR-TM-MBP chimera with the transmembrane domain of the FtsI homolog annotated for S. pyogenes (S. pyogenes).

In the case of “ToxR-TM-MBP chimera with the transmembrane domain of the FtsI homolog annotated for S. pneumoniae (domain or fragment)”, in experiment [1], the GFP expression, percent of GpA is > 100 % of GpA.
In the case of “ToxR-TM-MBP chimera with the transmembrane domain of the FtsI homolog annotated for S. pyogenes (domain or fragment)”, the GFP expression, percent of GpA in experiment [2] was > 100 % of GpA.
